Legend:
[1] = target: EPN-Fos-C (EPN monomer with the Fos domain at the C-end; prokaryotic construct pET-EPN-Fos-C) (HIV | not stated)
[2] = target: EPN-Fos-M (EPN monomer with the Fos domain between the Interaction domain and the Late budding domain; prokaryotic construct pET-EPN-Fos-M) (not stated | HIV)
[3] = target: EPN-p6 (enveloped protein nanocage monomer with the p6 domain; prokaryotic construct pET-EPN-His-p6) (HIV)

NanoLuc-Jun (NanoLuc luciferase fused with the Jun leucine zipper domain)
NanoLuc, molecules in a single nanocage, in EV C (estimated from luciferase assay and the EPN/NanoLuc molar ratio by MS/MS) (molecules in a single nanocage) [1]: 15
NanoLuc, molecules in a single nanocage, in EV C(lenti) (estimated from luciferase assay and the EPN/NanoLuc molar ratio by MS/MS) (molecules in a single nanocage) [1]: 40
NanoLuc, molecules in a single nanocage, in EV M (estimated from luciferase assay and the EPN/NanoLuc molar ratio by MS/MS) (molecules in a single nanocage) [2]: 21

NanoLuc-Vpr (NanoLuc luciferase fused with HIV viral protein R) (from UniProt P69726 1-96)
NanoLuc, molecules in a single nanocage, in EV p6 (estimated from luciferase assay and the EPN/NanoLuc molar ratio by MS/MS) (molecules in a single nanocage) [3]: 1.5

From article PMC8224366
